Assay results as given in patent KR20210143097A (dated 2021).
Values belong to the binder of their own block, whether it stands above or below them.

How the values were obtained:
[1] = target: CD22-His tag (CD22 extracellular domain; ACRObiosystems Inc.) (UniProt P20273); test: ELISA, CD22-His tag coated at 100 ng/well, primary antibody 0.4 ㎍/㎖, absorbance at 450 nm
[2] = target: T1, CD22 on B-cell lymphoma U2932 cells (UniProt P20273 20-847, limits assumed); test: flow cytometry on U2932 cells, 1 ㎍ antibody per 1x10^6 cells, PE anti-mouse IgG secondary
T1 construct: whole, on cells; Endogenous CD22 on the U2932 cell line; also called CD22를 발현하는 비세포림프종 U2932; CD22를 발현하는 U2932 세포
T1 sequence (looked up): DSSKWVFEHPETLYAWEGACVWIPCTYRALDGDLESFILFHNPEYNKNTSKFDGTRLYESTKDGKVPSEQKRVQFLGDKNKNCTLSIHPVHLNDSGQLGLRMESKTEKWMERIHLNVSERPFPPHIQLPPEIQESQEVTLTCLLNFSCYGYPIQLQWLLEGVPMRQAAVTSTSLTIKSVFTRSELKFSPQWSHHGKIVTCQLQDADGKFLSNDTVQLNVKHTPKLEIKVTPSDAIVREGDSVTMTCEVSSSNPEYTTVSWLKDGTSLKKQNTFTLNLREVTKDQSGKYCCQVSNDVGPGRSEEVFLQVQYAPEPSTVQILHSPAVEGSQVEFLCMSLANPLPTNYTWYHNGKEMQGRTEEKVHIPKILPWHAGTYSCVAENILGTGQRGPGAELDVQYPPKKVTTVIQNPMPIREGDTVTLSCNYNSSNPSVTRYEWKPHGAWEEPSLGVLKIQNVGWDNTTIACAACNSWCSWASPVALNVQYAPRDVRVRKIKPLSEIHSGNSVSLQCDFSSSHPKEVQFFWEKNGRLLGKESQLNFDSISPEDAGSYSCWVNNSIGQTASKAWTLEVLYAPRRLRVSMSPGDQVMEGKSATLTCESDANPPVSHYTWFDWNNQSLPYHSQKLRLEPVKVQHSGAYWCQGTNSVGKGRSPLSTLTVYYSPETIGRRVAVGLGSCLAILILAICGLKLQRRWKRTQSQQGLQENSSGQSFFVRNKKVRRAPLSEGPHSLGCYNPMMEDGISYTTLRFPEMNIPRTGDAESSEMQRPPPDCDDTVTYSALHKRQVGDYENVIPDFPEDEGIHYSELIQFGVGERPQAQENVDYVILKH

- OD450 측정값 [1]: 1.86
- binding result [2]: binds
B1: 3F11 항체 (antibody, V domains shown)
VH: EVKLVESGGGLVQPGGSMKLSCVASGFTFSNYWMNWVRQSPEKGLEWVAEIRLKSNNYATHYAESVKGRFTISRDDSKSSVYLQMNNLRAEDTGIYYCTSIYYYGRDYAMDYWGQGTSVTVSS
VL: DIVMTQSPAIMSASLGERVTMTCTASSSVSSSYLHWYQQKPGSSPKLWIYSTSNLASGVPARFSGSGSGTSYSLTISSMEAEDAATYYCHQYHRSPYTFGGGTKLEIK
notes: Antibody from a mouse hybridoma, detected with an anti-mouse IgG secondary antibody

- OD450 측정값 [1]: 2.66
- binding result [2]: binds
B2: 7B5 항체 (antibody, V domains shown)
VH: EVQLEESGPGLVAPSQSLSITCTVSGFSLTRYDISWIRQPPGKGLEWLGVMWTGGGTNYNSAFMSRLSISRDNSKSQVFLKMNSLQTDDTAIYYCVRSYYGSAMDYWGQGTSVTVSS
VL: DIVMTQSSSYLSVSLGGRVTITCKASDHINNWLAWYQQKPGNAPRLLISGATSLETGVPSRFSGSGSGKDYTLSITSLQTEDVATYYCQQHWSTPFTFGSGTKLEIK
notes: as for B1
